The source of these data is the Human Domainome abundance scans (Beltran et al. 2025).

± gives the uncertainty stated by the source.

The labels stand for the following.
B1: Formin-binding protein 4, residues 200 to 261; numbered along this chain, Q8N3X1 (parent)
chain: SGWQYDTQCSLAGVGIEMGDWQEVWDENTGCYYYWNTQTNEVTWELPQYLATQVQGLQHYQP

Variants of B1 are the subject of the data set. Put plainly: abundance fitness (aPCA) (normalised: wild type 0, dead -1); higher = more abundant; growth selection in yeast, the domain comes from the species named. Conditions: Homo sapiens.
Regarding SGWQYDTQCSLAGVGIEMGDWFEVWDENTGCYYYWNTQTNEVTWELPQYLATQVQGLQHYQP [Q22F], the abundance fitness was -0.423 ± 0.13. Next, SGWQYDTQCSLAGVGIEMGDWREVWDENTGCYYYWNTQTNEVTWELPQYLATQVQGLQHYQP [Q22R]: 0.006 ± 0.072; SGWQYDTQCSLAGVGIEMGDWGEVWDENTGCYYYWNTQTNEVTWELPQYLATQVQGLQHYQP [Q22G]: -0.234 ± 0.15; SGWQYDTQCSLAGVGIEMGDWVEVWDENTGCYYYWNTQTNEVTWELPQYLATQVQGLQHYQP [Q22V]: 0.063 ± 0.077. Next, SGWQYDTQCSLAGVGIEMGDWQRVWDENTGCYYYWNTQTNEVTWELPQYLATQVQGLQHYQP [E23R]: -0.59 ± 0.12; SGWQYDTQCSLAGVGIEMGDWQCVWDENTGCYYYWNTQTNEVTWELPQYLATQVQGLQHYQP [E23C]: -0.862 ± 0.18; SGWQYDTQCSLAGVGIEMGDWQQVWDENTGCYYYWNTQTNEVTWELPQYLATQVQGLQHYQP [E23Q]: -0.431 ± 0.12.

Take SGWQYDTQCSLAGVGIEMGDWQYVWDENTGCYYYWNTQTNEVTWELPQYLATQVQGLQHYQP [E23Y]: the abundance fitness is -0.58 ± 0.21. Next, SGWQYDTQCSLAGVGIEMGDWQMVWDENTGCYYYWNTQTNEVTWELPQYLATQVQGLQHYQP [E23M]: -0.964 ± 0.18; SGWQYDTQCSLAGVGIEMGDWQVVWDENTGCYYYWNTQTNEVTWELPQYLATQVQGLQHYQP [E23V]: -1.07 ± 0.17. Next, SGWQYDTQCSLAGVGIEMGDWQSVWDENTGCYYYWNTQTNEVTWELPQYLATQVQGLQHYQP [E23S]: -0.682 ± 0.094; SGWQYDTQCSLAGVGIEMGDWQHVWDENTGCYYYWNTQTNEVTWELPQYLATQVQGLQHYQP [E23H]: -0.443 ± 0.36; SGWQYDTQCSLAGVGIEMGDWQWVWDENTGCYYYWNTQTNEVTWELPQYLATQVQGLQHYQP [E23W]: -1.06 ± 0.28.

Regarding SGWQYDTQCSLAGVGIEMGDWQFVWDENTGCYYYWNTQTNEVTWELPQYLATQVQGLQHYQP [E23F], the abundance fitness is -0.511 ± 0.15. Next, SGWQYDTQCSLAGVGIEMGDWQAVWDENTGCYYYWNTQTNEVTWELPQYLATQVQGLQHYQP [E23A]: -0.817 ± 0.13. In the case of SGWQYDTQCSLAGVGIEMGDWQTVWDENTGCYYYWNTQTNEVTWELPQYLATQVQGLQHYQP [E23T], the abundance fitness is -0.582 ± 0.12. Take SGWQYDTQCSLAGVGIEMGDWQLVWDENTGCYYYWNTQTNEVTWELPQYLATQVQGLQHYQP [E23L]: the abundance fitness is -0.637 ± 0.081. Next, SGWQYDTQCSLAGVGIEMGDWQIVWDENTGCYYYWNTQTNEVTWELPQYLATQVQGLQHYQP [E23I]: -0.759 ± 0.22. The figure for SGWQYDTQCSLAGVGIEMGDWQPVWDENTGCYYYWNTQTNEVTWELPQYLATQVQGLQHYQP [E23P] is -0.697 ± 0.14. In the case of SGWQYDTQCSLAGVGIEMGDWQEVHDENTGCYYYWNTQTNEVTWELPQYLATQVQGLQHYQP [W25H], the abundance fitness is -0.256 ± 0.23.

With SGWQYDTQCSLAGVGIEMGDWQEVEDENTGCYYYWNTQTNEVTWELPQYLATQVQGLQHYQP [W25E], the abundance fitness is -0.414 ± 0.1. Next, SGWQYDTQCSLAGVGIEMGDWQEVADENTGCYYYWNTQTNEVTWELPQYLATQVQGLQHYQP [W25A]: -0.207 ± 0.088. Next, SGWQYDTQCSLAGVGIEMGDWQEVFDENTGCYYYWNTQTNEVTWELPQYLATQVQGLQHYQP [W25F]: -0.142 ± 0.12. With SGWQYDTQCSLAGVGIEMGDWQEVDDENTGCYYYWNTQTNEVTWELPQYLATQVQGLQHYQP [W25D], the abundance fitness is -0.252 ± 0.19.

Turning to SGWQYDTQCSLAGVGIEMGDWQEVCDENTGCYYYWNTQTNEVTWELPQYLATQVQGLQHYQP [W25C], the abundance fitness is -0.263 ± 0.15.

SGWQYDTQCSLAGVGIEMGDWQEVGDENTGCYYYWNTQTNEVTWELPQYLATQVQGLQHYQP [W25G]: the abundance fitness is -0.557 ± 0.076. Next, SGWQYDTQCSLAGVGIEMGDLQEVWDENTGCYYYWNTQTNEVTWELPQYLATQVQGLQHYQP [W21L]: -0.847 ± 0.082; SGWQYDTQCSLAGVGIEMGDEQEVWDENTGCYYYWNTQTNEVTWELPQYLATQVQGLQHYQP [W21E]: -1.03 ± 0.22. Regarding SGWQYDTQCSLAGVGIEMGDYQEVWDENTGCYYYWNTQTNEVTWELPQYLATQVQGLQHYQP [W21Y], the abundance fitness was -0.066 ± 0.21. In the case of SGWQYDTQCSLAGVGIEMGDHQEVWDENTGCYYYWNTQTNEVTWELPQYLATQVQGLQHYQP [W21H], the abundance fitness is -0.297 ± 0.29. Next, SGWQYDTQCSLAGVGIEMGDIQEVWDENTGCYYYWNTQTNEVTWELPQYLATQVQGLQHYQP [W21I]: -0.859 ± 0.22. The figure for SGWQYDTQCSLAGVGIEMGDFQEVWDENTGCYYYWNTQTNEVTWELPQYLATQVQGLQHYQP [W21F] is -0.313 ± 0.11; for SGWQYDTQCSLAGVGIEMGDMQEVWDENTGCYYYWNTQTNEVTWELPQYLATQVQGLQHYQP [W21M] it is -0.498 ± 0.1; for SGWQYDTQCSLAGVGIEMGDGQEVWDENTGCYYYWNTQTNEVTWELPQYLATQVQGLQHYQP [W21G] it is -0.791 ± 0.093. The figure for SGWQYDTQCSLAGVGIEMGDRQEVWDENTGCYYYWNTQTNEVTWELPQYLATQVQGLQHYQP [W21R] is -0.811 ± 0.081; for SGWQYDTQCSLAGVGIEMGDKQEVWDENTGCYYYWNTQTNEVTWELPQYLATQVQGLQHYQP [W21K] it is -1.05 ± 0.26; for SGWQYDTQCSLAGVGIEMGDTQEVWDENTGCYYYWNTQTNEVTWELPQYLATQVQGLQHYQP [W21T] it is -0.792 ± 0.16. SGWQYDTQCSLAGVGIEMGDPQEVWDENTGCYYYWNTQTNEVTWELPQYLATQVQGLQHYQP [W21P]: the abundance fitness was -0.812 ± 0.17. The figure for SGWQYDTQCSLAGVGIEMGDVQEVWDENTGCYYYWNTQTNEVTWELPQYLATQVQGLQHYQP [W21V] is -0.82 ± 0.1; for SGWQYDTQCSLAGVGIEMGDCQEVWDENTGCYYYWNTQTNEVTWELPQYLATQVQGLQHYQP [W21C] it is -0.804 ± 0.17; for SGWQYDTQCSLAGVGIEMGDDQEVWDENTGCYYYWNTQTNEVTWELPQYLATQVQGLQHYQP [W21D] it is -0.716 ± 0.25. The figure for SGWQYDTQCSLAGVGIEMGDAQEVWDENTGCYYYWNTQTNEVTWELPQYLATQVQGLQHYQP [W21A] is -0.948 ± 0.15; for SGWQYDTQCSLAGVGIEMGDNQEVWDENTGCYYYWNTQTNEVTWELPQYLATQVQGLQHYQP [W21N] it is -1.1 ± 0.3.
